# Source: the supplement of paper PMC7125110
# ± gives the standard error. Fewer inactive variants are shown than the library holds.
# B1: glmS ribozyme (parent)
# chain: AUAAAAGCGCCAGAACUACAGAAAUGUAGUUGACGAGGAGGAGGUUUAUCGAAUUUUCGGCGGAUGCCUCCAAA
# Tests used:
# Conditions in all cases: with glucosamine-6-phosphate
# glucosamine-6-phosphate [1] = variants of: B1; assay: self-cleavage kobs at 40 uM GlcN6P; higher = faster cleavage; RNA array
# Procedure, shortened: (§1)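 Barcoded ribozyme variants, transcribed in situ by E. coli RNA polymerase on sequenced MiSeq chips, were followed via a hybridised Cy3 probe at 37 °C. Glucosamine-6-phosphate ranged from 40 μM to 10 mM in HEPES/KCl/Mg(OAc)2 buffer. kobs came from decay fits to per-tile medians, and kcat and KM from weighted Michaelis–Menten fits.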
# glucosamine-6-phosphate [2] = variants of: B1; assay: self-cleavage kobs at 10000 uM GlcN6P; higher = faster cleavage; RNA array
# Procedure, shortened: as §1
# glucosamine-6-phosphate [3] = variants of: B1; assay: self-cleavage kobs at 160 uM GlcN6P; higher = faster cleavage; RNA array
# Procedure, shortened: as §1
# glucosamine-6-phosphate [4] = variants of: B1; assay: self-cleavage kobs at 640 uM GlcN6P; higher = faster cleavage; RNA array
# Procedure, shortened: as §1
# glucosamine-6-phosphate [5] = variants of: B1; assay: self-cleavage kobs at 2500 uM GlcN6P; higher = faster cleavage; RNA array
# Procedure, shortened: as §1
Variant,self-cleavage kobs at 40 uM GlcN6P (glucosamine-6-phosphate [1]),self-cleavage kobs at 10000 uM GlcN6P (glucosamine-6-phosphate [2]),self-cleavage kobs at 160 uM GlcN6P (glucosamine-6-phosphate [3]),self-cleavage kobs at 640 uM GlcN6P (glucosamine-6-phosphate [4]),self-cleavage kobs at 2500 uM GlcN6P (glucosamine-6-phosphate [5])
U49A G62C,< 1e-05 s⁻¹,< 1e-05 s⁻¹,,,
U49A G62U,< 1e-05 s⁻¹,< 1e-05 s⁻¹,,,
U57G C70G,3.7e-05 ± 9.8e-06 s⁻¹,2.33e-05 ± 1e-05 s⁻¹,0.00016 ± 3e-05 s⁻¹,0.000103 ± 1.5e-05 s⁻¹,8.84e-05 ± 1.5e-05 s⁻¹
U55A C71U,0.00109 ± 0.00019 s⁻¹,0.0549 ± 0.013 s⁻¹,0.00212 ± 0.00076 s⁻¹,0.0121 ± 0.0034 s⁻¹,0.00755 ± 0.0025 s⁻¹
A53U C71U,0.000617 ± 6e-05 s⁻¹,0.0301 ± 0.0058 s⁻¹,0.00115 ± 0.0002 s⁻¹,0.00728 ± 0.0012 s⁻¹,0.0165 ± 0.0031 s⁻¹
A53U C71G,9.68e-05 ± 1.3e-05 s⁻¹,0.00158 ± 0.00036 s⁻¹,0.000213 ± 7e-05 s⁻¹,0.000283 ± 4.7e-05 s⁻¹,0.000247 ± 5.4e-05 s⁻¹
U57G G59C,< 1e-05 s⁻¹,< 1e-05 s⁻¹,,< 1e-05 s⁻¹,
G62A A64U,< 1e-05 s⁻¹,< 1e-05 s⁻¹,,< 1e-05 s⁻¹,
G62A A64G,< 1e-05 s⁻¹,,,,
A53U C70U,0.000741 ± 6.7e-05 s⁻¹,0.0335 ± 0.0084 s⁻¹,0.00102 ± 0.00023 s⁻¹,0.00682 ± 0.0013 s⁻¹,0.00471 ± 0.0013 s⁻¹
C58U U65A,< 1e-05 s⁻¹,,< 1e-05 s⁻¹,,
C61G A64G,< 1e-05 s⁻¹,< 1e-05 s⁻¹,,< 1e-05 s⁻¹,< 1e-05 s⁻¹
U57A C61U,< 1e-05 s⁻¹,< 1e-05 s⁻¹,,< 1e-05 s⁻¹,< 1e-05 s⁻¹
A52U G59A,< 1e-05 s⁻¹,< 1e-05 s⁻¹,< 1e-05 s⁻¹,< 1e-05 s⁻¹,< 1e-05 s⁻¹
C58G C61U,< 1e-05 s⁻¹,,,,
C50U U54A,< 1e-05 s⁻¹,5.02e-05 ± 9.2e-06 s⁻¹,< 1e-05 s⁻¹,,
A53G C61G C70U,< 1e-05 s⁻¹,< 1e-05 s⁻¹,,,
A53C C68A,< 1e-05 s⁻¹,,< 1e-05 s⁻¹,< 1e-05 s⁻¹,
A53G C68U,0.000296 ± 4.8e-05 s⁻¹,0.00554 ± 0.0012 s⁻¹,0.00034 ± 7.7e-05 s⁻¹,0.00399 ± 0.00064 s⁻¹,0.00239 ± 0.00052 s⁻¹
U54A C61U C71G,< 1e-05 s⁻¹,,,,
